Measurements taken from publication PMC7335806, “Molecular mechanisms that regulate export of the planar cell-polarity protein Frizzled-6 out of the endoplasmic reticulum” (The Journal of Biological Chemistry, 2020).

Experiments:
Experiment in all cases: pull-down; peptides (5 nmol) covalently coupled to thiopyridone-Sepharose 6B beads via the C-terminal cysteine; 2 μg purified His-tagged Sar1A preincubated with 500 μM GTPγS in HK buffer (100 mM KCl, 20 mM Hepes pH 7.2); 1 h at 4 °C; immunoblotting
Conditions in all cases: both partners purified
[1] = target: T1, His-tagged human Sar1A^(Δ2-17, H79G) (human, UniProt Q9NR31 10-198, Δ2-17 | H79G)
T1 construct: Sar1A, human, H79G, depleted of its N-terminal amphipathic helix (Δ2-17); preincubated with GTPγS; also called Sar1A^(Δ2-17, H79G)-His; Sar1A (Δ2-17, H79G)-His; source: recombinant (cloned into pET-28a), purified; not shown: His, C-terminal, kept
T1 sequence (Q9NR31 18-198 H79G): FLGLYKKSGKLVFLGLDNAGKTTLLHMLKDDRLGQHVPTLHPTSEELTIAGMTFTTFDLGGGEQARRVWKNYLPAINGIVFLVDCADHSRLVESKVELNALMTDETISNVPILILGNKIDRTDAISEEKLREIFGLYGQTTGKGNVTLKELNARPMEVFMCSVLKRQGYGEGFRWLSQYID

[2] = target: T2, Sar1A (Δ2-17, E62A, E63A, H79G) (human, UniProt Q9NR31 10-198, Δ2-17 | E62A | E63A | H79G)
T2 construct: Sar1A, human, Δ2-17, H79G with E62A and E63A; preincubated with GTPγS; also called Sar1A (Δ2-17, H79G, E62A, E63A)-His; source: recombinant, purified; not shown: His, C-terminal, kept
T2 sequence (Q9NR31 18-198 E62A/E63A/H79G): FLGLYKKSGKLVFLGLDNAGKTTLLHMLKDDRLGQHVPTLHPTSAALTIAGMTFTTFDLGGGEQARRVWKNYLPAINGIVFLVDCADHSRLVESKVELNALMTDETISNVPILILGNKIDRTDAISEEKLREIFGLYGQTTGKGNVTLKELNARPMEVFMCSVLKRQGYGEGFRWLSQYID

[3] = target: T3, Sar1A (Δ2-17, H79G, D198A) (human, UniProt Q9NR31 10-198, Δ2-17 | H79G | D198A)
T3 construct: Sar1A, human, Δ2-17, H79G with D198A; preincubated with GTPγS; also called Sar1A bearing the D198A mutation; source: recombinant, purified
T3 sequence (Q9NR31 18-198 H79G/D198A): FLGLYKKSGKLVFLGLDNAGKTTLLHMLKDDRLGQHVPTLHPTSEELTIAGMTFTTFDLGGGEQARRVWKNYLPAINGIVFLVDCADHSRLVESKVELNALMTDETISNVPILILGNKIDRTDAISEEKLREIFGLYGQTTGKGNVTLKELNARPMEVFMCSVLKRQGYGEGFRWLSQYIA

- binding result [1]: binds
- binding result [2]: binds
- binding result [3]: binds
B1: RRFR peptides (first intracellular loop of Fzd6) (peptide)
peptide: VRRFRYPERPC
notes: first intracellular loop of Fzd6 with the polybasic motif RRFR; added C-terminal cysteine residue, used to couple the peptide to thiopyridone-Sepharose 6B beads; Covalently linked to thiopyridone-Sepharose 6B through the added C-terminal cysteine; source: synthetic peptide, bought: GenScript
